Source: patent publication US20140179594A1, “STREPTOCOCCUS BACTERIOPHAGE LYSINS FOR TREATMENT OF GRAM POSITIVE BACTERIA IN COMPANION ANIMALS AND LIVESTOCK” (priority 2011, published 2014)
Like-named read-outs stand apart in the source and are kept apart here.

Tests used:
S. dysgalactiae GGS = experiment: ΔPlySs1 OD600 lysis, 1 hr; format: cell-based
[1] = tested on: purified S. suis cell walls (from type strain 5735); experiment: PlySs1 bond specificity, double digestion with HEWL, mass spectrum; format: biochemical; settings: double digestion with HEWL and PlySs1
Text: To determine the bond specificity of the enzymatic domain of PlySs1, purified S. suis cell walls (from type strain 5735) were subject to double digestion with HEWL (a muramidase) and PlySs1. The two predominant peaks were m/z=718 and m/z=734. This corresponds exactly to the predicted masses of the [Na-M]+ and [K-M]+ adducts of GlcNAc-MurNAc-LAla-D-Gln. […] When a mass spectrum was taken of undigested cell wall, the above two peaks were absent.

S. pyogenes D471 = experiment: ΔPlySs1 OD600 lysis, 1 hr; format: cell-based
S. simulans TNK3 = experiment: ΔPlySs1 OD600 lysis, 1 hr; format: cell-based
S. agalactiae type II = experiment: ΔPlySs1 OD600 lysis, 1 hr; format: cell-based
S. suis 5735 (ST2) = experiment: ΔPlySs1 CFU analysis; format: cell-based; settings: 1 hr
Experimental: (§1) Given the above experiments, the following optimal buffering conditions were employed for all further in vitro experiments with ΔPlySs1: 20 mM phosphate buffer, pH=7.8, 2 mM EDTA. A range of lysin concentrations, from 6.5-130 μg/ml, were introduced to live S. suis cells in this buffer. Three strains were considered particularly relevant: 7711, the serotype 7 strain that encodes PlySs1; 5735, the serotype 2 reference strain; and 7997, a highly virulent serotype 9 strain. In terms of bacterial viability, only the highest PlySs1-concentration (130 μg/ml) led to a >90% decrease in CFUs for 7711, S735, and 7997 after 1 hr treatment (TABLE 2). The lysin was also tested against actively-dividing cells in broth culture (strain 7711) (FIG. 20).
(§2) For two ΔPlySs1 concentrations (130 and 13 μg/ml), CFU analysis was conducted on S. suis strains 5735, 7997, and 7711 after 1 hr treatment (optimal buffering conditions). In each experiment, the percentage-decrease in CFUs was determined for the treated sample versus the untreated. The range of the values observed (across 3 independent experiments) is reported here for each strain. The serotype of each strain is indicated in parentheses.

S. suis 7711 (ST7) = experiment: ΔPlySs1 CFU analysis; format: cell-based; settings: 1 hr
Experimental: as §1, §2

S. suis 7997 (ST9) = experiment: ΔPlySs1 CFU analysis; format: cell-based; settings: 1 hr
Experimental: as §1, §2

S. oralis 35037 = experiment: ΔPlySs1 OD600 lysis, 1 hr; format: cell-based
S. suis strain 7711 = experiment: ΔPlySs1 growth inhibition in BHI broth; format: cell-based; settings: strain 7711 in BHI broth, overnight
Experimental: The optical density of each sample was measured continuously overnight in 96-well plate format. Overall, bacterial growth was delayed in a dose-dependent manner. However, for enzyme-concentrations that were sufficient to induce lysis in buffered solutions (130 and 50 μg/ml), the effect was quite minimal here. […] For all of the treated samples, one will note that the final optical densities are actually higher than that of the untreated sample. This is an artifact of the accumulation of aggregated bacterial debris that occurred in the presence of lytic enzyme.
as §1

S. pneumoniae R36 = experiment: ΔPlySs1 OD600 lysis, 1 hr; format: cell-based
E. faecium EFSK2 = experiment: ΔPlySs1 OD600 lysis, 1 hr; format: cell-based
S. uberis 27598 = experiment: ΔPlySs1 OD600 lysis, 1 hr; format: cell-based
S. epidermidis HN1292 = experiment: ΔPlySs1 OD600 lysis, 1 hr; format: cell-based
B. anthracis ΔSterne = format: cell-based
M. luteus 4698 = experiment: ΔPlySs1 OD600 lysis, 1 hr; format: cell-based
S. dysgalactiae 21597 = experiment: ΔPlySs1 OD600 lysis, 1 hr; format: cell-based
L. monocytogenes HER1084 = experiment: ΔPlySs1 OD600 lysis, 1 hr; format: cell-based
B. thuringiensis HD73 = experiment: ΔPlySs1 OD600 lysis, 1 hr; format: cell-based

B1: ΔPlySs1: truncated PlySs1 lysin with N-terminal enzymatic and central binding domains, N-terminal 254 amino acids, SEQ ID NO:2 (protein, listed as Streptococcus suis)
chain: MTINLETSIRWMSDRVGKVSYSMDYRNGPNSYDCSSAVYYALMAGGAISAGWAVNTEYMHDWLIRNGYVLVAENKPFNAQRHDVCILGKRGYSSGAGGHVVIFVDNVNVIHCNYARNGISIDNYNQVHRGMYYYLYRPANQPSISNKSLDQLVKETLAGVHGNGDTRKASLGSQYEAVMAVINGKASASEKSDEELAREVLAGKHGAGEDRKRSLGPRYEPVQAKVNELLKAKEKPSETAKNEPQTVQFKEDGDL
S. dysgalactiae GGS; 6.5 μg/ml
  1-hour treated/untreated OD600-ratio: 0.30
S. dysgalactiae GGS; 13 μg/ml
  1-hour treated/untreated OD600-ratio: 0.27
S. dysgalactiae GGS; 30 μg/ml
  1-hour treated/untreated OD600-ratio: 0.15
S. dysgalactiae GGS; 65 μg/ml
  1-hour treated/untreated OD600-ratio: 0.11
S. dysgalactiae GGS; 130 μg/ml
  1-hour treated/untreated OD600-ratio: 0.14
[1]
  bond specificity of the enzymatic domain: gamma-endopeptidase activity
S. pyogenes D471; 6.5 μg/ml
  1-hour treated/untreated OD600-ratio: 0.39
S. pyogenes D471; 13 μg/ml
  1-hour treated/untreated OD600-ratio: 0.27
S. pyogenes D471; 30 μg/ml
  1-hour treated/untreated OD600-ratio: 0.17
S. pyogenes D471; 65 μg/ml
  1-hour treated/untreated OD600-ratio: 0.13
S. pyogenes D471; 130 μg/ml
  1-hour treated/untreated OD600-ratio: 0.09
S. simulans TNK3; 6.5 μg/ml
  1-hour treated/untreated OD600-ratio: 0.96
S. simulans TNK3; 13 μg/ml
  1-hour treated/untreated OD600-ratio: 1.00
S. simulans TNK3; 30 μg/ml
  1-hour treated/untreated OD600-ratio: 1.00
S. simulans TNK3; 65 μg/ml
  1-hour treated/untreated OD600-ratio: 1.00
S. simulans TNK3; 130 μg/ml
  1-hour treated/untreated OD600-ratio: 0.96
S. agalactiae type II; 6.5 μg/ml
  1-hour treated/untreated OD600-ratio: 0.61
S. agalactiae type II; 13 μg/ml
  1-hour treated/untreated OD600-ratio: 0.21
S. agalactiae type II; 30 μg/ml
  1-hour treated/untreated OD600-ratio: 0.11
S. agalactiae type II; 65 μg/ml
  1-hour treated/untreated OD600-ratio: 0.08
S. agalactiae type II; 130 μg/ml
  1-hour treated/untreated OD600-ratio: 0.04
S. suis 5735 (ST2); 13 μg/ml
  percentage-decrease in CFUs, treated versus untreated (range of 3 experiments): 80.4%-92.6%
S. suis 5735 (ST2); 130 μg/ml
  percentage-decrease in CFUs, treated versus untreated (range of 3 experiments): 95.4%-99.5%
S. suis 5735 (ST2); 130 μg/ml, listed as PlySs1
  percentage-decrease in CFUs, treated versus untreated (range of 3 experiments): > 90%
S. suis 7711 (ST7); 13 μg/ml
  percentage-decrease in CFUs, treated versus untreated (range of 3 experiments): 0%-35.6%
S. suis 7711 (ST7); 130 μg/ml
  percentage-decrease in CFUs, treated versus untreated (range of 3 experiments): 95.3%-99.2%
S. suis 7711 (ST7); 130 μg/ml, listed as PlySs1
  percentage-decrease in CFUs, treated versus untreated (range of 3 experiments): > 90%
S. suis 7997 (ST9); 13 μg/ml
  percentage-decrease in CFUs, treated versus untreated (range of 3 experiments): 16.8%-30.3%
S. suis 7997 (ST9); 130 μg/ml
  percentage-decrease in CFUs, treated versus untreated (range of 3 experiments): 89.9%-93.9%
S. suis 7997 (ST9); 130 μg/ml, listed as PlySs1
  percentage-decrease in CFUs, treated versus untreated (range of 3 experiments): > 90%
S. oralis 35037; 6.5 μg/ml
  1-hour treated/untreated OD600-ratio: 0.30
S. oralis 35037; 13 μg/ml
  1-hour treated/untreated OD600-ratio: 0.13
S. oralis 35037; 30 μg/ml
  1-hour treated/untreated OD600-ratio: 0.08
S. oralis 35037; 65 μg/ml
  1-hour treated/untreated OD600-ratio: 0.07
S. oralis 35037; 130 μg/ml
  1-hour treated/untreated OD600-ratio: 0.04
S. suis strain 7711
  growth inhibition of actively-dividing cells: could not inhibit S. suis growth outright
S. pneumoniae R36; 6.5 μg/ml
  1-hour treated/untreated OD600-ratio: 0.25
S. pneumoniae R36; 13 μg/ml
  1-hour treated/untreated OD600-ratio: 0.22
S. pneumoniae R36; 30 μg/ml
  1-hour treated/untreated OD600-ratio: 0.14
S. pneumoniae R36; 65 μg/ml
  1-hour treated/untreated OD600-ratio: 0.16
S. pneumoniae R36; 130 μg/ml
  1-hour treated/untreated OD600-ratio: 0.12
E. faecium EFSK2; 6.5 μg/ml
  1-hour treated/untreated OD600-ratio: 0.85
E. faecium EFSK2; 13 μg/ml
  1-hour treated/untreated OD600-ratio: 0.67
E. faecium EFSK2; 30 μg/ml
  1-hour treated/untreated OD600-ratio: 0.52
E. faecium EFSK2; 65 μg/ml
  1-hour treated/untreated OD600-ratio: 0.32
E. faecium EFSK2; 130 μg/ml
  1-hour treated/untreated OD600-ratio: 0.13
S. uberis 27598; 6.5 μg/ml
  1-hour treated/untreated OD600-ratio: 0.42
S. uberis 27598; 13 μg/ml
  1-hour treated/untreated OD600-ratio: 0.23
S. uberis 27598; 30 μg/ml
  1-hour treated/untreated OD600-ratio: 0.16
S. uberis 27598; 65 μg/ml
  1-hour treated/untreated OD600-ratio: 0.14
S. uberis 27598; 130 μg/ml
  1-hour treated/untreated OD600-ratio: 0.12
S. epidermidis HN1292; 6.5 μg/ml
  1-hour treated/untreated OD600-ratio: 1.04
S. epidermidis HN1292; 13 μg/ml
  1-hour treated/untreated OD600-ratio: 1.00
S. epidermidis HN1292; 30 μg/ml
  1-hour treated/untreated OD600-ratio: 0.96
S. epidermidis HN1292; 65 μg/ml
  1-hour treated/untreated OD600-ratio: 0.94
S. epidermidis HN1292; 130 μg/ml
  1-hour treated/untreated OD600-ratio: 0.87
B. anthracis ΔSterne; 6.5 μg/ml
  1-hour treated/untreated OD600-ratio: 1.02
B. anthracis ΔSterne; 30 μg/ml
  1-hour treated/untreated OD600-ratio: 1.02
B. anthracis ΔSterne; 65 μg/ml
  1-hour treated/untreated OD600-ratio: 0.98
B. anthracis ΔSterne; 130 μg/ml
  1-hour treated/untreated OD600-ratio: 0.90
M. luteus 4698; 6.5 μg/ml
  1-hour treated/untreated OD600-ratio: 0.84
M. luteus 4698; 13 μg/ml
  1-hour treated/untreated OD600-ratio: 0.90
M. luteus 4698; 30 μg/ml
  1-hour treated/untreated OD600-ratio: 0.83
M. luteus 4698; 65 μg/ml
  1-hour treated/untreated OD600-ratio: 0.87
M. luteus 4698; 130 μg/ml
  1-hour treated/untreated OD600-ratio: 0.82
S. dysgalactiae 21597; 6.5 μg/ml
  1-hour treated/untreated OD600-ratio: 0.26
S. dysgalactiae 21597; 13 μg/ml
  1-hour treated/untreated OD600-ratio: 0.18
S. dysgalactiae 21597; 30 μg/ml
  1-hour treated/untreated OD600-ratio: 0.12
S. dysgalactiae 21597; 65 μg/ml
  1-hour treated/untreated OD600-ratio: 0.10
S. dysgalactiae 21597; 130 μg/ml
  1-hour treated/untreated OD600-ratio: 0.09
L. monocytogenes HER1084; 6.5 μg/ml
  1-hour treated/untreated OD600-ratio: 0.63
L. monocytogenes HER1084; 13 μg/ml
  1-hour treated/untreated OD600-ratio: 0.52
L. monocytogenes HER1084; 30 μg/ml
  1-hour treated/untreated OD600-ratio: 0.26
L. monocytogenes HER1084; 65 μg/ml
  1-hour treated/untreated OD600-ratio: 0.14
L. monocytogenes HER1084; 130 μg/ml
  1-hour treated/untreated OD600-ratio: 0.04
B. thuringiensis HD73; 6.5 μg/ml
  1-hour treated/untreated OD600-ratio: 0.99
B. thuringiensis HD73; 13 μg/ml
  1-hour treated/untreated OD600-ratio: 0.98
B. thuringiensis HD73; 30 μg/ml
  1-hour treated/untreated OD600-ratio: 0.93
B. thuringiensis HD73; 65 μg/ml
  1-hour treated/untreated OD600-ratio: 0.86
B. thuringiensis HD73; 130 μg/ml
  1-hour treated/untreated OD600-ratio: 0.60
